Experiment [1] addresses HBsAg of HBV genotype D (GenBank J02203, ayw3) (hepatitis B virus, genotype D, UniProt P03138 164-389). The experiment is described as follows: flow cytometry, permeabilized transfected Hep2 cells, 5000 to 7 ng/ml.
Another experiment deals with HBsAg P120T (hepatitis B virus, genotype D, UniProt Q913A6 175-400). The experiment is described as follows: flow cytometry, permeabilized transfected Hep2 cells, 5 µg/ml.

B1: HBC34-V7 (antibody, V domains shown)
VH: ELQLVESGGGWVQPGGSQRLSCAASGRIFRSFYMSWVRQAPGKGLEWVATINQDGSEKLYVDSVKGRFTISRDNAKNSLFLQMNNLRVEDTAVYYCAAWSGNSGGMDVWGQGTTVSVSS
VL: SYELTQPPSVSVSPGQTVSIPCSGDKLGNKNVCWFQHKPGQSPVLVIYEVKYRPSGIPERFSGSNSGNTATLTISGTQAMDEAAYFCQTFDSTTVVFGGGTRLTVL
notes: also called variant 7; HMB34-V7
As to B1, the binding result in experiment [1] is “binds”.

B2: HBC34 (antibody, V domains shown)
VH: ELQLVESGGGWVQPGGSQRLSCAASGRIFRSFYMSWVRQAPGKGLEWVATINQDGSEKLYVDSVKGRFTISRDNAKNSLFLQMNNLRVEDTAVYYCAAWSGNSGGMDVWGQGTTVSVSS
VL: SYELTQPPSVSVSPGQTVSIPCSGDKLGNKNVCWFQHKPGQSPVLVIYEVKYRPSGIPERFSGSNSGNTATLTISGTQAMDEAAYFCQTWDSTTVVFGGGTRLTVL
notes: also called human monoclonal antibody HBC34; WT
With B2, in the experiment with HBsAg P120T, the binding result is “binds”.

The record behind these values is patent US20190016785A1 (HUMABS BIOMED, published 2019).
